Data as given in patent US20220363757A1 (SYMPHOGEN A S, published 2022).

T1: human LAG-3 domain 1-2 Fc fusion, point mutation #59 Q117A (human, UniProt P18627 23-266)
T1 construct: not shown: human IgG1 Fc, AA P101-K330
T1 sequence: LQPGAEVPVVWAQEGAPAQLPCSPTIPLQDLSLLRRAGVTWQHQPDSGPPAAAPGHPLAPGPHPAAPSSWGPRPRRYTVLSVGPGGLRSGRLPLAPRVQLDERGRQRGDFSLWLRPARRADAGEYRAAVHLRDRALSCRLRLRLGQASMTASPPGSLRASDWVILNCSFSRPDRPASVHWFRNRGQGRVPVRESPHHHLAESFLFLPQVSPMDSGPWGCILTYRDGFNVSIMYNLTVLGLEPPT

T2: human LAG-3 domain 1-2 Fc fusion, point mutation #61 R119A (human, UniProt P18627 23-266)
T2 construct: not shown: human IgG1 Fc, AA P101-K330
T2 sequence: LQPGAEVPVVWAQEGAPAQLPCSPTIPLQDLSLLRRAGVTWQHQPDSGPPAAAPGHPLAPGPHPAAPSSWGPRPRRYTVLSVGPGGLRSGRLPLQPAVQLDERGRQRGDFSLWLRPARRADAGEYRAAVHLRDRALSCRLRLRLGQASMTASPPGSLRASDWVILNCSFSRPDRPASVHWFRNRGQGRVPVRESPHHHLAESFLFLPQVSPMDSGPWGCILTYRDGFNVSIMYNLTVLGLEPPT

T3: human LAG-3 domain 1-2 Fc fusion, point mutation #74 P138A (human, UniProt P18627 23-266)
T3 construct: not shown: human IgG1 Fc, AA P101-K330
T3 sequence: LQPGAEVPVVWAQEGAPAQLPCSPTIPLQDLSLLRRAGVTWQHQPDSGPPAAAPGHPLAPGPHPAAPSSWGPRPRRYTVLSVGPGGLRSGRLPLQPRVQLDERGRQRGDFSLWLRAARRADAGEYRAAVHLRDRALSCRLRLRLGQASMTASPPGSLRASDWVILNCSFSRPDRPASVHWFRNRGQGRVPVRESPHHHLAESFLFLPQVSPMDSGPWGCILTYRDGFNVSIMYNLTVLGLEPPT

T4: human LAG-3 domain 1-2 Fc fusion, point mutation #7 P49A (human, UniProt P18627 23-266)
T4 construct: not shown: human IgG1 Fc, AA P101-K330
T4 sequence: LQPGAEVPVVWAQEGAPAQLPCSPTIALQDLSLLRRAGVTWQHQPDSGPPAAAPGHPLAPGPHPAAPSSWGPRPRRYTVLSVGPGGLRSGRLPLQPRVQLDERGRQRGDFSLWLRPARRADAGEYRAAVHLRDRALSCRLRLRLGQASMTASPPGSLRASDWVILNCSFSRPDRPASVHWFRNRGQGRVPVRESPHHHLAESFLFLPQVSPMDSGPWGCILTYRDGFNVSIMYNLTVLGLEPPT

T5: human LAG-3 domain 1-2 Fc fusion, point mutation #20 A73S (human, UniProt P18627 23-266)
T5 construct: not shown: human IgG1 Fc, AA P101-K330
T5 sequence: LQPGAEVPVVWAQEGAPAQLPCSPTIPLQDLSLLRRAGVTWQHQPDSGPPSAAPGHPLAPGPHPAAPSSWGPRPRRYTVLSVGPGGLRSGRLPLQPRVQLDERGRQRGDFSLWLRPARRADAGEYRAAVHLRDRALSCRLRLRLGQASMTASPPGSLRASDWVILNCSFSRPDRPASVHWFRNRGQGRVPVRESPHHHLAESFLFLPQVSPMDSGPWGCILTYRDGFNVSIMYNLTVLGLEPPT

T6: human LAG-3 domain 1-2 Fc fusion, point mutation #23 P76A (human, UniProt P18627 23-266)
T6 construct: not shown: human IgG1 Fc, AA P101-K330
T6 sequence: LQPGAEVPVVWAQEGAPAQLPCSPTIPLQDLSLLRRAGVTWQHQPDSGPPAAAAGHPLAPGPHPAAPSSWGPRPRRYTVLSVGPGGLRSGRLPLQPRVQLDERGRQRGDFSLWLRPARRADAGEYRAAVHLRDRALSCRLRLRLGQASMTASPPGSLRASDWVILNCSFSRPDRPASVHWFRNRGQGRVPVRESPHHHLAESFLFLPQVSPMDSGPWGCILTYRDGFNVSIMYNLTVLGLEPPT

T7: human LAG-3 domain 1-2 Fc fusion, point mutation #28 A81S (human, UniProt P18627 23-266)
T7 construct: not shown: human IgG1 Fc, AA P101-K330
T7 sequence: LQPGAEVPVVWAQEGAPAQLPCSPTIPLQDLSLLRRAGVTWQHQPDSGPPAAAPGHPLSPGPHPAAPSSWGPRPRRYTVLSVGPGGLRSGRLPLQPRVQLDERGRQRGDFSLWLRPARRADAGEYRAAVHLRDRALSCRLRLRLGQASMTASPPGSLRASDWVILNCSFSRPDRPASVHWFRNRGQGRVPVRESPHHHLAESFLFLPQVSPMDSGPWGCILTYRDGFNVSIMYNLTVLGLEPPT

T8: human LAG-3 domain 1-2 Fc fusion, point mutation #30 G83A (human, UniProt P18627 23-266)
T8 construct: not shown: human IgG1 Fc, AA P101-K330
T8 sequence: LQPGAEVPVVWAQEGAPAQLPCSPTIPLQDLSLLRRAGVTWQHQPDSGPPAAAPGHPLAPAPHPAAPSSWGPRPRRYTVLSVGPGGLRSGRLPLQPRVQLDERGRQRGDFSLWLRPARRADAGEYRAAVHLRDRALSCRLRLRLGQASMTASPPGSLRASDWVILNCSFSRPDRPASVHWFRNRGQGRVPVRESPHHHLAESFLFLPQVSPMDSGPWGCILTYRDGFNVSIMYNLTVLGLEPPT

T9: human LAG-3 domain 1-2 Fc fusion, point mutation #37 S90A (human, UniProt P18627 23-266)
T9 construct: not shown: human IgG1 Fc, AA P101-K330
T9 sequence: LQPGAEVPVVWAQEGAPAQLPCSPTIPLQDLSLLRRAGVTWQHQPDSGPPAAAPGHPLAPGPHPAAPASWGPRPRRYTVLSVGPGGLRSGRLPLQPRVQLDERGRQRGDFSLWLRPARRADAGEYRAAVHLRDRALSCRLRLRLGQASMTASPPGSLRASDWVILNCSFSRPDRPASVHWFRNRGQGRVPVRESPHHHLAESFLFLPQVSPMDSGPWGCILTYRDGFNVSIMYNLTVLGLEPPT


How the values were obtained:
Test in all cases: SPR, Fab over captured mutant LAG-3-Fc;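 further: fc fusion variants captured on anti-human IgG Fc sensor, Fab injected with association then dissociation phases, KD obtained from Langmuir one-to-one fit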
[1] = target: T1, human LAG-3 domain 1-2 Fc fusion, point …
[2] = target: T2, human LAG-3 domain 1-2 Fc fusion, point …
[3] = target: T3, human LAG-3 domain 1-2 Fc fusion, point …
[4] = target: T4, human LAG-3 domain 1-2 Fc fusion, point …
[5] = target: T5, human LAG-3 domain 1-2 Fc fusion, point …
[6] = target: T6, human LAG-3 domain 1-2 Fc fusion, point …
[7] = target: T7, human LAG-3 domain 1-2 Fc fusion, point …
[8] = target: T8, human LAG-3 domain 1-2 Fc fusion, point …
[9] = target: T9, human LAG-3 domain 1-2 Fc fusion, point …

Binder | KD mutant/KD wild type [1] [fold] | KD mutant/KD wild type [2] [fold] | KD mutant/KD wild type [3] [fold] | KD mutant/KD wild type [4] [fold] | KD mutant/KD wild type [5] [fold] | KD mutant/KD wild type [6] [fold] | KD mutant/KD wild type [7] [fold] | KD mutant/KD wild type [8] [fold] | KD mutant/KD wild type [9] [fold] | binding result [2] | binding result [3] | binding result [4]
Fab fragment of antibody 15431 (Fab, V domains shown, not shown: a dimerising Fc or GST, monomeric Fab made by GingisKHAN digestion of the IgG1) VH: QVQLQQSGPGLVKPSQTLSLTCAISGDSVSSNSAAWNWIRQSPSRGLEWLGRTYYRSKWYNDYAVSVKSRITINPDTSKNQFSLQLNSVTPEDTAVYYCARDDDWNDFDYWGQGTLVTVSS VL: EIVLTQSPATLSLSPGERATLSCRASQSVSSYLAWYQQKPGQAPRLLIYDASNRATGIPARFSGSGSGTDFTLTISSLEPEDFAVYYCQQRSNWPLTFGGGTKVEIKR | 0.4 | – | – | – | 0.6 | 0.7 | 0.6 | 0.5 | 0.9 | no binding (tested: 300 nM) | no binding (tested: 300 nM) | no binding (tested: 300 nM)
Fab fragment of antibody 15011 (Fab, V domains shown, not shown: a dimerising Fc or GST, monomeric Fab made by GingisKHAN digestion of the IgG1) VH: EVQLLESGGGLVQPGGSLRLSCAASGFDFRSYAMMWVRQAPGKGLEWVGGINGEVGGSNTYYAPAVKGRATISRDNSKNTLYLQMNSLRAEDTAVYYCVKGAGACGICNDDIDAWGQGTLVTVSS VL: SYELTQDPAVSVALGQTVRITCSGAGSYAGSYYYGWHQQKPGQAPVTVIYDNDKRPSNIPDRFSGSSSGNTASLTITGAQAEDEADYYCGSTNDNDDGGLFGSGTKVTVLG | 0.7 | 0.6 | 0.7 | 0.8 | 0.7 | 0.8 | 0.8 | 0.7 | 0.9 | – | – | –

More lines, now with the values ahead:

KD mutant/KD wild type [1] [fold] | KD mutant/KD wild type [2] [fold] | KD mutant/KD wild type [3] [fold] | KD mutant/KD wild type [4] [fold] | KD mutant/KD wild type [5] [fold] | KD mutant/KD wild type [6] [fold] | KD mutant/KD wild type [7] [fold] | KD mutant/KD wild type [8] [fold] | KD mutant/KD wild type [9] [fold] | binding result [2] | binding result [3] | binding result [4] | Binder
0.8 | 3.2 | 2.7 | 1.7 | 0.7 | 1 | 0.6 | 1.1 | 0.6 | – | – | – | Fab fragment of antibody 15532 (Fab, V domains shown, not shown: a dimerising Fc or GST, monomeric Fab made by GingisKHAN digestion of the IgG1) VH: QVQLQQWGAGLLRPSETLSLTCAVYGESFSGYYWNWIRQPPGKGLEWIGEINHSGSTNYNPSLKSRVTISVDTSKTQFSLKLSSVTAADTAVYYCARGWDLLDWNDYWNEYWGQGTLVTVSS VL: EIVLTQSPATLSLSPGERATLSCRASQSVSSYLAWYQQKPGQAPRLLIYDASNRATGIPARFSGSGSGTDFTLTISSLEPEDFAVYYCQQRSNWPLTFGGGTKVEIKR
0.5 | – | – | – | 0.6 | 0.6 | 0.6 | 0.5 | 0.8 | no binding (tested: 300 nM) | no binding (tested: 300 nM) | no binding (tested: 300 nM) | Fab fragment of antibody 15572 (Fab, V domains shown, not shown: a dimerising Fc or GST, monomeric Fab made by GingisKHAN digestion of the IgG1) VH: QLQLQESGPGLVKPSETLSLTCTVSGDSISSSSYYWGWIRQPPGKGLEWIGSIFYSGNTYYNPSLKSRVTISVDTSKNQFSLKLSSVTAADTAVYYCAREDDFLTDYYGAFDIWGQGTMVTVSS VL: not shown
